The results in this text go back to US7125541.

Assay [1] has as its target human endoglin (human) (UniProt P17813). Nature of the assay: competitive binding inhibition on HUVEC by FACS; unlabelled TEC-11 against competitor biotinylated TEC-4, ratio 1:1.
The target is the same in assay [2]. As to the kind of experiment: competitive binding inhibition on HUVEC by FACS; unlabelled TEC-4 against competitor biotinylated TEC-11, ratio 1:1. In general terms: Flow cytometry measures light scatter and fluorescence of single cells or particles in a stream.
For assay [3] the target is unchanged. As to the kind of experiment: competitive binding inhibition on HUVEC by FACS; unlabelled TEC-4 against competitor biotinylated TEC-11, ratio 1:100.

As to “TEC-11 (tumor endothelial cell antibody 11)”, the percent blocking of biotinylated antibody with human endoglin (human) [1] is 51%.
As to “TEC-4 (tumor endothelial cell antibody 4)”, the percent blocking of biotinylated antibody with human endoglin (human) [2] came to 1%; with human endoglin (human) [3] it was 20%.
